These results are taken from paper PMC7840129, “Structural basis for heme-dependent NCoR binding to the transcriptional repressor REV-ERBβ” (Science Advances, 2021).

The target in this test is T1, heme-bound REV-ERBβ LBD (Homo sapiens, UniProt Q14995).
T1 construct: The human REV-ERBβ LBD (residues 381 to 579) was previously cloned; 6xHis with 3C protease cleavage site (N, cleaved yes); made in house; host or cells: E. coli BL21(DE3)
T1 sequence (Q14995 381-579): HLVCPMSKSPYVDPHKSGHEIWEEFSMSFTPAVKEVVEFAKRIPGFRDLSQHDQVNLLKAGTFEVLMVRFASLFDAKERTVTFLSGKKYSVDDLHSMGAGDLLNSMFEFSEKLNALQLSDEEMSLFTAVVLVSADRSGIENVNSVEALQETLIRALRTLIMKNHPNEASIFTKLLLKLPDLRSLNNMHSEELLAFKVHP
Kind of test: ITC, NCoR RID constructs with heme-bound REV-ERBβ LBD. It counts as binding. How it is done: Human REV-ERBβ LBD was expressed in BL21(DE3) Escherichia coli cells with an N-terminal hexahistidine (6xHis) tag separated by a 3C protease cleavage site. Expression was performed using auto-induction media: Cells were grown at 37°C for 5 hours, 30°C for 1 hour, and 18°C for 16 hours before harvesting by centrifugation. Pellets were resuspended in potassium phosphate lysis buffer [40 mM potassium phosphate (pH 7.4), 500 mM KCl, 15 mM imidazole, and 1 mM dithiothreitol (DTT)] supplemented with leupeptin, pepstatin A, lysozyme, and deoxyribonuclease (DNase) I and sonicated on ice. […] A 5-ml aliquot of 6xHis-tagged protein was purified by size exclusion chromatography using a Superdex 75 column equilibrated in time-resolved fluorescence energy transfer (TR-FRET) assay buffer [20 mM potassium phosphate (pH 7.4), 50 mM KCl, and 0.5 mM EDTA]; purified aliquots were stored at −80°C for TR-FRET assays. To cleave the 6xHis tag from the remaining protein, it was incubated overnight with 3C protease (generated in-house) via dialysis; then, protein was reloaded onto the HisTrap columns, and the flow-through was collected. Last, aggregates were removed by size exclusion chromatography using a Superdex 75 column and Hepes gel filtration buffer [20 mM Hepes (pH 7.4), 50 mM KCl, and 0.5 mM EDTA]. Greater than 95% purity was confirmed by SDS-PAGE. Protein was aliquoted and stored at −80°C.
ITC experiments were performed using a MicroCal iTC200. All experiments were solvent-matched and contained 0.1% DMSO (peptide vehicle) and 0.2% 0.2 M solution of NaOH (heme vehicle) final concentrations. NITPIC software ([37]) was used to calculate baselines and integrate curves and prepare experimental data for fitting in SEDPHAT, which was used to generate final binding affinity and thermodynamic parameter measurements ([38]).Final figures were exported to GUSSI for publication-quality figure preparation ([39]).
NCoR RID constructs (WT, ΔID1, ΔID2, or ΔID1ΔID2) were prepared in assay buffer at 15 μM, and REV-ERBβ LBD was prepared at 300 μM. REV-ERBβ LBD in the syringe was titrated into the RID in the sample cell as described above, with the exception that a total of 4 molar equivalents were titrated over 20 injections. […] For apo LBD into WT RID, data were fit to A + B ↔ AB + B ↔ BA + A ↔ BAB, with two nonsymmetric sites, microscopic K model in SEDPHAT. For apo LBD into ΔID2, data were fit to an A + B ↔ AB hetero-association model in SEDPHAT. For heme-bound LBD into WT RID, data were fit to an A + B ↔ AB hetero-association model in SEDPHAT.
NCoR RID constructs (including WT, ΔID1, ΔID2, and ΔID1ΔID2) were transformed into BL21(DE3) E. coli cells, which were grown in 2 liters of Terrific Broth media [yeast extract (24 g/liter), tryptone (12 g/liter), KH2PO4 ([…]), K2HPO4 ([…]), and glycerol (4 ml/liter)] at 37°C until OD600 reached 0.7 to 0.8. Expression was induced with 0.75 mM IPTG for 2 hours at 37°C before cells were harvested by centrifugation. Pellets were washed 1× with phosphate-buffered saline and stored at −80°C until purification. Pellets were resuspended on ice in Hepes lysis buffer [25 mM Hepes (pH 7.4), 150 mM NaCl, 2 M urea, and 15 mM imidazole] supplemented with 1 mM DTT, pepstatin A, leupeptin, lysozyme, DNase I, phenylmethylsulfonyl fluoride, and 0.1% Tween 20, and cell slurry was sonicated on ice. […]
On the technique in general: In ITC the heat of successive injections is recorded.

Setting [1] is: +Heme LBD, WT RID, 25°C, A + B ↔ AB model, 95% CI.

B1: WT RID: mouse NCoR RID (residues 1942 to 2208 in the X50 splice variant) (protein, UniProt Q60974 1942-2208, looked up, fragment)
chain: TITAANFIDVIITRQIASDKDARERGSQSSDSSSSLSSHRYETASDAIEVISPASSPAPPQEKPQAYQPDMVKANQAENESTRQYEGPLHHYRSQQESPSPQQQPPLPPSSQSEGMGQVPRTHRLITLADHICQIITQDFARNQVPSQASTSTFQTSPSALSSTPVRTKTSSRYSPESQSQTVLHPRPGPRVSPENLVDKSRGSRPGKSPERSHIPSEPYEPISPPQGPAVHEKQDSMLLLSQRGVDPAEQRSDSRSPGSISYLPSF
modifications: X50 splice variant
Take B1: under setting [1], the TΔS is given as 11.2 kcal/mol, the ΔG was -9.6 kcal/mol and the ΔH is 1.7 kcal/mol. Also, the equilibrium dissociation constant (Kd) (usually the concentration at which binding is half-saturated) (+Heme LBD, WT RID, LBD 300 μM into 15 μM RID, pH 7.4, 25°C, A + B ↔ AB hetero-association model, 95% CI) is 99 nM. For the same molecule, the “RID binding to heme-bound LBD (in words)” value (heme-bound LBD, RID mutants and WT) is recorded as “must involve positive cooperativity”.
